One data set concerns HeLa cells. The experiment in a line: Doubling time of reseeded HeLa colonies expressing exogenous TReP-132. The note with it: HeLa cells expressing TReP-132; control pcDNA3 cells 18 hours. Type of data set: cell-based, human. The method, then: HeLa cells were seeded in 12-well plates at an initial density of 100,000 cells per well, incubated for 24 hours, then transfected with each of the following plasmids: pcDNA3, pcDNA3-Luc, pcDNA3-SF-1, or pcDNA3-TReP-132, each containing the neomycin resistance gene. The transfections were carried out in triplicate with ExGen 500 (MBI Fermentas, Flamborough, Ontario, Canada) at a ratio of 5 μl of ExGen 500 per 1 μg of plasmid. After 12 hours of transfection, the medium was changed and the cells were incubated for an additional 8 hours. The cells were then trypsinized and transferred to a 100 mm petri dish. After 48 hours, the medium was supplemented with 400 μg/ml of the selection agent G418 (Sigma-Aldrich CA Ltd.). Distinct colonies could be detected after two weeks of selection with G418. The cells were then rinsed with PBS and fixed with a mixture of 10% acetic acid/10% methanol for 15 min, then colored with crystal violet (Sigma-Aldrich CA Ltd.).
The cell proliferation rate was determined by the cellular DNA content using the fluorochorome DABA ([…]). […] Fluorescence was measured on a Perkin-Elmer LS-2B Filter Fluorimeter at an excitation wavelength of 400 nm and an emission wavelength of 508 nm. The DNA content was calculated from a standard curve of known quantities of salmon sperm DNA.

A further data set has as its system cyclin A/CDK2. The data set is described as follows: In vitro kinase assay of immunoprecipitated cyclin A/CDK2 (histone H1 substrate). The note with it: TReP-132 induced for 48 hours in HTO-GFP/TReP-132 cells. Type of data set: biochemical, human. An excerpt:
FIG. 9A: Kinase activities of each immunoprecipitated cyclin or CDK were quantified using pRb as substrate to measure cyclin D1/CDK6 activity, or histone H1 to measure cyclin A/CDK2 activity. The levels of phosphorylation of histone H1 or pRb in induced HTO cells (HeLa Tet Off) are expressed in relation to the levels in non-induced HTO cells (corresponding to level 1.0).
Cells were washed twice with cold PBS (Phosphate Buffered Saline), then harvested either in cold RIPA buffer (1×PBS, 1% Nonidet P-40, 0.5% sodium deoxycholate, 0.1% SDS, phosphatase and protease inhibitors) for co-immunoprecipitation analysis, or in lysis buffer (50 mM Tris, pH 8.0, 0.1% IGEPAL (Sigma)) for kinase assays. […] The blots were then visualized with ECL reagent and quantified with SCANWISE and Perfect-IMAGE V-5.3 software (CLARA VISION, France).
The kinase activities on histone H1 or Rb protein in the immunoprecipitates were measured as follows: the immunoprecipitates were first washed once with 1 ml of assay buffer (50 mM Tris-HCl, pH 7.4, 10 mM MgCl2, 1 mM dithiothreitol (DTT)), then resuspended in 20 μl of assay buffer containing 1 mg/ml casein (Sigma) and 1 μg of histone H1 or Rb protein (769) (sc-4112) as substrate. […]
The reaction was stopped by addition of 15 μl of electrophoresis buffer (3×). […] Phosphorylated Rb and histones were quantified by densitometry.

Another data set concerns p27^KiP1 gene. The experiment in a line: RNase protection assay of CDKI transcription in HeLa cells, p27. The note with it: HeLa Tet-off cells, doxycycline removed. The class given is cell-based, human. The method, then:
All radiolabelled probes specific for the p130, Rb, p107, p53, p57, p27, p21, p19, p18, p14/p15, L32, and GAPDH genes were labelled with [α-^32P]UTP-ribonucleotide (PerkinElmer Life Sciences, Woodbridge, Ontario, CA) in the conditions specified in the “hCC-2 Muti-Probe Template Set” kit (Pharmingen, Mississauga, Ontario, CA). Ribonuclease protection experiments were carried out with the Ribonuclease III Protection kit (Ambion, Austin, Tex.). Ten micrograms of HeLa cell RNA were hybridized with the radiolabelled probe mixture at 56° C. and then digested for 45 min at 30° C. in RNase A/RNase T1 solution diluted 1:1000 in digestion buffer. The samples were separated on a polyacrylamide-6% urea gel.

B1: TReP-132: Transcriptional Regulating Protein of 132 kDa, polypeptide comprising SEQ ID NO: 2; here expressed in cells from vectors (protein)
chain: MGDQQLYKTNHVAHGSENLFYQQPPLGVHSGLNHNYGNAVTGGGMDAPQASPISPHFPQDTRDGLGLPVGSKNLGQMDTSRQGGWGSHAGPGNHVQLRGNLANSNMMWGAPAQAEPTDGYQYTYSQASEIRTQKLTSGVLHKLDSFTQVFANQNLRIQVNNMAQVLHTQSAVMDGAPDSALRQLLSQKPMEPPAPAIPSRYQQVPQQPHPGFTGGLSKPALQVGQHPTQGHLYYDYQQPLAQVPVQGGQPLQAPQMLSQHMQQMQQHQYYPPQQQQQAGQQRISMQEIQTQPQQIRPSQPQPPPQQQQPQQLQLQQRQGSMQIPQYYQPQPMMQHLQEQQQQQMHLQPPSYHRDPHQYTPEQAHTVQLIPLGSMSQYYYQEPQQPYSHPLYQQSHLSQHQQREDSQLKTYSSDRQAQAMLSSHGDLGPPDTGMGDPASSDLTRVSSTLPHRPLLSPSGIHLNNMGPQHQQLSPSAMWPQMHLPDGRAQPGSPESSGQPKGAFGEQFDAKNKLTCSICLKEFKNLPALNGHMRSHGGMRASPNLKQEEGEKVLPPQPQPPLPPPPPPPPPPQLPPEAESLTPMVMPVSVPVKLLPPKPSSQGFTNSTVAAPSARDKPASSMSDDEMPVLEIPRKHQPSVPKAEEPLKTVQEKKKFRHRPEPLFIPPPPSYNPNPAASYSGATLYQSQLRSPRVLGDHLLLDPTHELPPYTPPPMLSPVRQGSGLFSNVLISGHGPGAHPQLPLTPLTPTPRVLLCRSNSIDGSNVTVTPGPGEQTVDVEPRINIGLRFQAEIPELQDISALAQDTHKATLVWKPWPELENHDLQQRVENLLNLCCSSALPGGGTNSEFALHSLFEAKGDVMVALEMLLLRKPVRLKCHPLANYHYAGSDKWTSLERKLFNKALATYSKDFIFVQKMVKSKTVAQCVEYYYTWKKIMRLGRKHRTRLAEIIDDCVTSEEEEELEEEEEEDPEEDRKSTKEEESEVPKSPEPPPVPVLAPTEGPPLQALGQPSGSFICEMPNCGAVFSSRQALNGHARIHGGTNQVTKARGAIPSGKQKPGGTQSGYCSVKSSPSHSTTSGETDPTTIFPCKECGKVFFKIKSRNAHMKTHRQQEEQQRQKAQKAAFAAEMAATIERTTGPVGAPGLLPLDQLSLIKPIKDVDILDDDVVQQLGGVMEEAEVVDTDLLLDDQDSVLLQGDAEL
Molecule B1 displayed a doubling time in the data set with HeLa cells of 30 h. Further, the “in vitro kinase activity of cyclin A/CDK2” value in the data set on cyclin A/CDK2 is on record as “reduced”. Also, in the data set with p27^KiP1 gene, the p27 gene transcription entry is “induction”.

The values above are taken from patent publication US20080044436A1, “Method for Screening and Compositions for Treating Cancers” (priority 2004, published 2008).
